The record followed here is patent publication US20220228157A1, “GENE EDITING IN DIVERSE BACTERIA” (priority 2019, published 2022).

One experiment deals with L. lactis. In words: Allelic recombination frequency, selective vs non-selective plates. It counts as cell-based, Lactococcus lactis. The conditions noted are these: for Function of dominant negative MutL: co-expressed with PapRecT and PaSSB; for Genome editing efficiency lower than Redβ with EcSSB: co-expressed with Redβ; for Editing efficiency with chimeric SSB: co-expressed with the RecT. Here is the method: Four variants known to enable high genome editing efficiency were selected (Redβ and PapRecT in E. coli, LrpRecT in L. lactis, and MspRecT in M. smegmatis), and tested codon optimized versions of all four in both E. coli (gram-negative), and L. lactis (gram-positive). Genome editing efficiency was measured by introducing oligos encoding known antibiotic resistance mutations, and compared the antibiotic resistant cell counts to the total number of viable cells in the population (FIGS. 17E-17F). […] In L. lactis, LrpRecT was the only functional homolog, and improved oligo incorporation 7,700-fold, while the three other RecT variants were nearly non-functional, improving oligo incorporation less than 7-fold (FIG. 17H). No RecT protein functioned well both in E. coli and L. lactis.
A single colony of L. lactis was grown overnight to saturation. 500 μL of dense culture was inoculated into 5 mL of fresh media, supplemented with 500 mM sucrose and 2.5% (w/v) glycine, and grown for 3 hours. To induce gene expression of the pJP005 vector for recombineering experiments, the cells were grown for an additional 30 min after adding 1 ng/mL freshly diluted nisin, unless stated otherwise. For the optimized condition (FIG. 20B), 10 ng/mL nisin was used. Cells were pelleted at 4° C. by centrifugation at 5,000×g for 5 minutes and washed twice with 2 mL of ice-cold electroporation buffer (500 mM sucrose containing 10% (w/v) glycerol) by centrifugation at 13,200×g for 2.5 minutes. Cells were resuspended in 80 μL ice-cold electroporation buffer containing DNA and transferred to a pre-chilled 0.1 cm electroporation cuvette.
Electrocompetent cells were electroporated with 90-mer oligos at: 1 uM for E. coli, 50 μg for L. lactis, and 10 uM for C. crescentus. 70-mer oligos were used at 1 μg for M. smegmatis. All oligos were obtained from IDT and can be found under “Oligonucleotides for genome editing” in materials and methods. For dsDNA experiments L. lactis was electroporated with 1.5 μg purified linear dsDNA. Cells were electroporated using a Bio-Rad gene pulser set to 25 μF, 200 S2, and 1.8 kV for E. coli, 2.0 kV for L. lactis, and 1.5 kV for C. crescentus and to 1000Ω and 2.5 kV for M. smegmatis. Immediately after electroporation, cells were recovered in fresh media for 3 hours for E. coli, 1 hour for L. lactis, overnight for M. smegmatis and overnight for C. crescentus. L. lactis recovery media was supplemented with MgCl2 and CaCl2) at a concentration of 20 mM and 2 mM, respectively. E. coli recovery media was supplemented with carbenicillin. M. smegmatis recovery media was supplemented with hygromycin. C. crescentus recovery media was supplemented with 0.3% xylose and kanamycin. After recovery, the cells were serial diluted and plated on non-selective vs. selective agar plates to obtain approximately 50-500 CFU/plate. Colonies were counted using a custom script in Fiji, and allelic recombination frequency was calculated by dividing the number of colonies on selective plates, with the number of colonies on non-selective plates.

The next experiment relates to Staphylococcus aureus. In words: SSAP candidate enrichment. It counts as cell-based. Here is the method: The editing efficiency of SSAP candidates was also tested in Agrobacterium tumefaciens and in Staphylococcus aureus using the methods described above.

B1: LlMutL.E33K: L. lactis MutL carrying the equivalent dominant negative mutation, SEQ ID NO: 513 (protein)
chain: MGKIIELNEALANQIAAGEVVERPASVVKELVKNSIDAGSSKIIINVEEAGLRLIEVIDNGLGLEKEDVALALRRHATSKIKDSADLFRIRTLGFRGEALPSIASVSQMTIETSNAQEEAGTKLIAKGGTIETLEPLAKRLGTKISVANLFYNTPARLKYIKSLQAELSHITDIINRLSLAHPEISFTLVNEGKEFLKTAGNGDLRQVIAAIYGIGTAKKMREINGSDLDFELTGYVSLPELTRANRNYITILINGRFIKNFLLNRAILEGYGNRLMVGRFPFAVLSIKIDPKLADVNVHPTKQEVRLSKERELMTLISKAIDETLSEGVLIPEALENLQGRAKEKGTVSVQTELPLQNNPLYYDNVRQDFFVREEAIFEINKNDNSDSLTEQNSTDYTVNQPETGSVSEKITDRTVESSNEFTDRTPKNSVSNFGVDFDNIEKLSQQSTFPQLEYLAQLHATYLLCQSKEGLYLVDQHAAQERIKYEYWKDKIGEVSMEQQILLAPYLFTLPKNDFIVLAEKKDLLHEAGVFLEEYGENQFILREHPIWLKETEIEKSINEMIDIILSSKEFSLKKYRHDLAAMVACKSSIKANHPLDAESARALLRELSTCKNPYSCAHGRPTIVHFSGDDIQKMFRRIQETHRSKAASWKDFE
On to B1, for which the “Function of dominant negative MutL” value in the experiment on L. lactis was “enabled the efficient introduction of 1 bp pair changes”.

B2: SR024: SSAP candidate (protein)
chain: MAIDNQSTKVITGKVRLSYTHVFEPQENDSGDMKYSTAILIPKSDKETLRKIKAAVDAAKELGKSKWGGKIPANCKTPLRDGDEERPDDEAYAGHYFLNASSKNKPGVAKPIGKDGNGKTKFQEITDSTEVYSGCYAKVSLNFYPFDAKGNRGVAAGLNNIVKVQDGDFLGGRSSVNDDFANEDFDDIVDISDDDDFLN
modifications: Paenibacillus lactis 154
notes: SSAP candidate
With B2, the “Editing efficiency (enrichment) relative to other SSAP candidates” value with Staphylococcus aureus is “increase in editing efficiency”.

B3: MutL.E32K from E. coli: dominant negative mismatch repair protein, SEQ ID NO: 515 (protein)
chain: MPIQVLPPQLANQIAAGEVVERPASVVKELVKNSLDAGATRIDIDIERGGAKLIRIRDNGCGIKKDELALALARHATSKIASLDDLEAIISLGFRGEALASISSVSRLTLTSRTAEQQEAWQAYAEGRDMNVTVKPAAHPVGTTLEVLDLFYNTPARRKFLRTEKTEFNHIDEIIRRIALARFDVTINLSHNGKIVRQYRAVPEGGQKERRLGAICGTAFLEQALAIEWQHGDLTLRGWVADPNHTTPALAEIQYCYVNGRMMRDRLINHAIRQACEDKLGADQQPAFVLYLEIDPHQVDVNVHPAKHEVRFHQSRLVHDFIYQGVLSVLQQQLETPLPLDDEPQPAPRSIPENRVAAGRNHFAEPAAREPVAPRYTPAPASGSRPAAPWPNAQPGYQKQQGEVYRQLLQTPAPMQKLKAPEPQEPALAANSQSFGRVLTIVHSDCALLERDGNISLLSLPVAERWLRQAQLTPGEAPVCAQPLLIPLRLKVSAEEKSALEKAQSALAELGIDFQSDAQHVTIRAVPLPLRQQNLQILIPELIGYLAKQSVFEPGNIAQWIARNLMSEHAQWSMAQAITLLADVERLCPQLVKTPPGGLLQSVDLHPAIKALKDE
For B3, in the experiment with L. lactis, the “Function of dominant negative MutL” value is “nonfunctional”.

B4: PF003: SSAP candidate (protein)
chain: MAENEKQALLQEENKSENVVSTVKRTALATNPFSDTDQFNNIFKMAQLISQSDMIPATYKGKPMNCVIALEQANRMGVSPLMVMQNLYVVKGVPSWSGQGCMMIIQGCGKFRDVDYVYSGEKGTDSRSCKVVATRISDGKRIEGTEITMQMVKSEGWISNTKWKNMPEQMLGYRAATFFARMYCPNELNGFATEGEAEDMNHKPQRIEAINVLGDTAHE
modifications: Clostridium sp FS41
notes: SSAP candidate
As to B4, in the experiment on Staphylococcus aureus, the “Editing efficiency (enrichment) relative to other SSAP candidates” value is “increase in editing efficiency”.

B5: L1SSB C7:EcSSB (protein)
chain: MINNVVLVGRITRDPELRYTPQNQAVATFSLAVNRQFKNANGEREADFINCVIWRQQAENLANWAKKGALIGVTGRIQTRNYENQQGQRVYVTEVVADSFQMLESRSARDGMGGGASAGSYSAPSQSTNNTPRPQTNNNSATPNFGRDADPFGSSPMEIMEIFDDDIPF
B5: the “Genome editing efficiency lower than Redβ with EcSSB” value in the experiment on L. lactis is not above 5.9 fold.

B6: L1SSB C7:MsSSB (protein)
chain: MINNVVLVGRITRDPELRYTPQNQAVATFSLAVNRQFKNANGEREADFINCVIWRQQAENLANWAKKGALIGVTGRIQTRNYENQQGQRVYVTEVVADSFQMLESRSARDGMGGGASAGSYSAPSQSTNNTPRPQTNNNSATPNFGRDADPFGSSPMEIMEIADDEPPF
B6: the “Editing efficiency with chimeric SSB” value with L. lactis is “completely recovered”.

B7: L1SSB C7:PaSSB (protein)
chain: MINNVVLVGRITRDPELRYTPQNQAVATFSLAVNRQFKNANGEREADFINCVIWRQQAENLANWAKKGALIGVTGRIQTRNYENQQGQRVYVTEVVADSFQMLESRSARDGMGGGASAGSYSAPSQSTNNTPRPQTNNNSATPNFGRDADPFGSSPMEIMEIFDDDIPF
B7: the “Editing efficiency with chimeric SSB” value with L. lactis is reported as “completely recovered”.

B8: SR033: SSAP candidate (protein)
chain: MADYEEQMLALQKPLQPDRVVWRVQQSGFSKQGKPWAMVLAYMDNRAVQERFDEVFGIAGWKNEFKTAPDGGTLCGISVKFGDEWVTKWDGAENTQVEAVKGGLSGSMKRAAVQWGVGRYLYDLPTSFAQTSLEKTDGWNKVFDKNSKKNFWWKNPQLPSWALPQNSKVQNTKADFTEEEIPNPPKLYVVGKDKKEFDEKKLQAVVNKMAIIAGKDYGASVDEQNDWLKMPLDEAYNDIEKFVDIKKEEQND
modifications: Lactococcus phage bIL286,Lactococcus lactis subsp lactis (strain IL1403) (Streptococcuslactis)
notes: SSAP candidate
For B8, the “Editing efficiency (enrichment) relative to other SSAP candidates” value in the experiment on Staphylococcus aureus was “increase in editing efficiency”.

B9: L1SSB C8:EcSSB (protein)
chain: MINNVVLVGRITRDPELRYTPQNQAVATFSLAVNRQFKNANGEREADFINCVIWRQQAENLANWAKKGALIGVTGRIQTRNYENQQGQRVYVTEVVADSFQMLESRSARDGMGGGASAGSYSAPSQSTNNTPRPQTNNNSATPNFGRDADPFGSSPMEMEDFDDDIPF
Consider B9, for which the “Genome editing efficiency lower than Redβ with EcSSB” value with L. lactis is not above 2.6 fold.

B10: L1SSB C8:MsSSB (protein)
chain: MINNVVLVGRITRDPELRYTPQNQAVATFSLAVNRQFKNANGEREADFINCVIWRQQAENLANWAKKGALIGVTGRIQTRNYENQQGQRVYVTEVVADSFQMLESRSARDGMGGGASAGSYSAPSQSTNNTPRPQTNNNSATPNFGRDADPFGSSPMEMEGADDEPPF
In the case of B10, the “Editing efficiency with chimeric SSB” value in the experiment on L. lactis is given as “completely recovered”.

B11: L1SSB C8:PaSSB (protein)
chain: MINNVVLVGRITRDPELRYTPQNQAVATFSLAVNRQFKNANGEREADFINCVIWRQQAENLANWAKKGALIGVTGRIQTRNYENQQGQRVYVTEVVADSFQMLESRSARDGMGGGASAGSYSAPSQSTNNTPRPQTNNNSATPNFGRDADPFGSSPMEMESFDDDIPF
Consider B11, for which the “Editing efficiency with chimeric SSB” value in the experiment on L. lactis is on record as “completely recovered”.
